Test results: patent US20240317882A1 (WUHAN BIO RAID BIOTECH, published 2024)

T1: extracellular domain of CD99 (UniProt P14209 23-122, limits assumed)
T1 construct: extracellular domain; also called antigen CD99; purified recombinant extracellular domain of CD99
T1 sequence (looked up): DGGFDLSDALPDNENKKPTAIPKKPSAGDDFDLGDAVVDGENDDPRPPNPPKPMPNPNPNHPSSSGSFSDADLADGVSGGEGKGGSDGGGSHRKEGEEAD


Target: T1, extracellular domain of CD99
Experiment: surface plasmon resonance (BiacoreX), soluble scFv against extracellular domain of CD99
Text: The nucleotide sequences shown in SEQ ID NO: 2, SEQ ID NO: 4, SEQ ID NO: 6, SEQ ID NO: 8 and SEQ ID NO: 10 were artificially synthesized with the cleavage site Nde I and Xho I each added to either terminal. The synthetic nucleotide sequences were subjected to dual-enzyme digestion, and then ligated to a cloning vector PMD-19T subjected to the same digestion process as above. The ligated product was transformed into the competent cells, and then the positive clones were screened and sequenced. The plasmid was extracted from the positive clone with a correct sequence, and then subjected to dual-enzyme digestion by using Nde I and Xho I. Meanwhile, an expression vector PET-28b was also subjected to the same dual-enzyme digestion as above. The nucleotide fragment was ligated with the vector fragment, with which E. coli was transformed. The positive clones were screened and sequenced. The positive clone with correct sequence was selected for extracting the plasmid.

| Binder | Kd [nM] |
| --- | --- |
| C3 anti-CD99 scFv (soluble) (scFv, Prior-art scFv; Expressed as soluble scFv in E. coli BL21 (DE3) from PET-28b; also called C3 in CN 110590960 A) scFv: QVQLVQSGAEVKKPGASVKVSCKASGFNIKDTYIHWVRQAPGQGLEWMGRIDPANGNTKYDPKFQGRVTMTRDTSISTAYMELSRLRSDDTAVYYCARRGGVDWGQGTLVTVSSGGGGSGGGGSGGGGSDIVMTQTPLSLSVTPGQPASISCKSSQSLLDGDGKTYLNWLLQKPGQSPQRLIYLVSKLDSGVPDRFSGSGSGTDFTLKISRVEAEDVGVYYCWQGTHFPRTFGQGTKLEIK | 510 |
| C6 anti-CD99 scFv (soluble) (scFv, Selected from a CD99 phage antibody library; Expressed as soluble scFv in E. coli BL21 (DE3) from PET-28b (Nde I / Xho I) and purified) scFv: EVQLQQSGAELVKPGASVKLSCTASGFNIKDTYIHWVKRRPEQGLEWIGRIDPANGNTKYDPKFQGKATITADTSSNTAYLQLSSLTSEDTAVYYCARRGLDYWGQGTLVTVSAGGGGSGGGGSGGGGSDVVMTQTPLTLSVTIGQPASISCKSSQSLLDGDGKTYLNWLLQRPGQSPKRLIYLVSKLDSGVPDRFTGSGSGTDFTLKISRVEAEDLGVYYCWQGTHFPRTFGGGTKLEIK | 450 |
| C2 anti-CD99 scFv (soluble) (scFv, Prior-art scFv; Expressed as soluble scFv in E. coli BL21 (DE3) from PET-28b; also called C2 in CN 110590960 A) scFv: EVQLQQSGAELVKPGASVKLSCTASGFNIKDTYIHWVKRRPEQGLEWIGRIDPANGNTKYDPKFQGKATITADTSSNTAYLQLSSLTSEDTAVYYCARRGGVDWGQGTLVTVSAGGGGSGGGGSGGGGSDVVMTQTPLTLSVTIGQPASISCKSSQSLLDGDGKTYLNWLLQRPGQSPKRLIYLVSKLDSGVPDRFTGSGSGTDFTLKISRVEAEDLGVYYCWQGTHFPRTFGGGTKLEIK | 480 |
| C4 anti-CD99 scFv (soluble) (scFv, Prior-art scFv; Expressed as soluble scFv in E. coli BL21 (DE3) from PET-28b) scFv: EVQLQQSGAELVKPGASVKLSCTASGFDIKDTYIHWVKQRPEQGLEWIGRIDPANGDTRYDPEFQGKASLTADTSSNTAYLQFSNLTSEDTAVYYCARRGGLSWGQGTTLTVSSGGGGSGGGGSGGGGSDIQMTQSPASLSASVGETVTITCRASGNIHNYLAWYQQKQGKSPQLLVYNAKTLADGVPSRFSGSGSGTQYSLKINSLQPEDFGSYYCQHFWSTPWTFGGGTKLEIK | 600 |
